Experimental data as given in the supplement of paper PMC10567573.
± gives the standard deviation.

Experiment: protein stability index of a GFP-peptide fusion (GPS, HEK-293T) (PSI 1-6); higher = more stable
Details: c terminus: a fixed tail appended
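Further: 24-mer peptide tiles fused after GFP, lentivirally expressed, FACS-sorted into six equal bins by GFP/DsRed ratio, decoded by Illumina sequencing, PSI is the read-weighted mean bin number.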

Sequence | protein stability index (treatment: DMSO) | protein stability index (treatment: MLN4924 1 uM, 8 h)
RAHPPQRPASSGGAHTLVNHGYAE [KCNA3] | 4.12 ± 0.13 | 3.94 ± 0.3
RAVLKYLYTGELDENERDLMHIAH [RHOBTB2] | 2.34 ± 0.13 | 2.49 ± 0.27
RAYGFRGPGPQLRRGWRPSSREDS [CHGA] | 3.9 ± 0.4 | 4.07 ± 0.47
RDKAEELLQLPDTKVGSFMIRESE [SLA] | 4.66 ± 0.37 | 4 ± 0.79
RDLKLCRFVFADRERKKLVLENLE [TRIB3] | 2.36 ± 0.23 | 2.51 ± 0.25
REQILRVKDTDDVPMILVGNKCDL [RAP1B] | 3.95 ± 0.28 | 3.98 ± 0.14
REVKVLLDQLRFPNGVQLSPAEDF [APMAP] | 2.97 ± 0.4 | 2.95 ± 0.5
RFTRTPVDQTGVSGGVASFICQAT [PTPRD] | 3.12 ± 0.28 | 3.19 ± 0.37
RFYRSPEVLLGTPYDLAIDMWSLG [DYRK1B] | 1.78 ± 0.42 | 2.29 ± 0.35
RGDPLGGCQVSPEGYAHLTHLLMG [HDAC6] | 2.35 ± 0.31 | 2.71 ± 0.47
RGLHEDLQGVPERLLGTAGTEEKK [VTI1B] | 5.38 ± 0.07 | 5.58 ± 0.26
RGRAREREQLQAEASERFAAGYIQ [HES6] | 4.58 ± 0.2 | 4.57 ± 0.1
RGSDLKVLEVTEESIDFDQGELAD [FBXO33] | 5.42 ± 0.14 | 5.519 ± 0.053
RGTHLWEFIRDILIHPELNEGLMK [ELF3] | 2.54 ± 0.59 | 2.31 ± 0.42
RHDSETEDMLWDDLLHGPECRSSV [PHTF1] | 4.68 ± 0.24 | 4.7 ± 0.2
RHIFMGYLESETETTEAIDDEGWL [ACSBG2] | 4.08 ± 0.27 | 4.13 ± 0.16
RIADKFTQHNFQEVMESEEFMLLP [KLHL20] | 3.5 ± 0.35 | 3.54 ± 0.22
RIHSGEEPHKCPECGKRFLRSSDL [ZNF449] | 3.51 ± 0.73 | 4.09 ± 0.34
RLFTQLKFGVVQTSVEECSQKGCL [CLCN6] | 2.29 ± 0.46 | 2.61 ± 0.27
RLHHPHKSVQHVVLQALFYLLDRA [PTPN9] | 2.28 ± 0.21 | 2.13 ± 0.36
RLLMSQADKMTAEEVDQMFQFASI [MYL5] | 3.06 ± 0.26 | 3.1 ± 0.37
RLNIKKDDEFFHFVLLCFAIGALL [TMEM40] | 2.73 ± 0.8 | 2.19 ± 0.54
RLPRAIGMSLAKELIFSARVLDGK [AUH] | 1.83 ± 0.39 | 1.9 ± 0.2

Sequence | protein stability index (treatment: DMSO) | protein stability index (treatment: MLN4924 1 uM, 8 h)
RLVLDAALALQARGCSVKIWTAHY [ALG2] | 2.87 ± 0.68 | 2.69 ± 0.72
RMENVTVLGEDVIVNDELYLNGAS [GMPPB] | 4.09 ± 0.072 | 4.1 ± 0.29
RMGSSESTDSGFCLDSPGPLDSKE [CDC25A] | 5.45 ± 0.14 | 5.47 ± 0.44
RMIFKLFSQETVMKFVPRYSLVLE [APMAP] | 2.74 ± 0.55 | 2.51 ± 0.37
RMLHRSTQTTNDGVCQSMCHDKYT [ZMYND11] | 3.94 ± 0.18 | 4.04 ± 0.32
RNALENIRKEMKLLEQAGSLKGSL [CRYL1] | 3.32 ± 0.64 | 3.62 ± 0.32
RNEGVSSVLLGASNADQLMENIGA [KCNAB2] | 4.25 ± 0.09 | 4.42 ± 0.12
RNGGKYCEGRRTRFRSCNTEDCPT [ADAMTS4] | 4.15 ± 0.34 | 4.09 ± 0.32
RNMLGLLGNVAEVKELRPQLMTSQ [ZER1] | 3.09 ± 0.3 | 3.49 ± 0.69
RNRPSFDAILYYYQSGGRIRRPVN [KCNA3] | 2.3 ± 0.22 | 2.58 ± 0.31
RPKLSEEQQRIIAILLDAHHKTYD [VDR] | 2.58 ± 0.28 | 2.75 ± 0.41
RPLRSREFPQFEPQRYPACAQMLP [TRAF3IP2] | 3.07 ± 0.44 | 3.44 ± 0.15
RPRQRQRVYPKCTWLTTPKSTWPR [TCF25] | 3.17 ± 0.43 | 3.23 ± 0.2
RPVNKLAELQCEVAALREEQKVLS [RASAL3] | 3.99 ± 0.35 | 4.19 ± 0.26
RQARKKGRHLELANQKLSEKLAAG [CCDC3] | 4.777 ± 0.006 | –
RQKKLMHKLQEEKAFREEMKIFRE [CCDC70] | 3.37 ± 0.28 | 3.59 ± 0.35
RQVLCEKCKSTLSPPEASPGPPAA [PWWP2B] | 4.88 ± 0.14 | 4.83 ± 0.37
RRKACQACRFTKCLRVGMLKEGVR [ESRRA] | 2.23 ± 0.25 | 2.3 ± 0.51
RRLKQAKEEAQAEIEQYRLQREKE [ATP6V1G1] | 5.47 ± 0.33 | 5.38 ± 0.25
RRRFREKKKAIQEEEERDQALQAK [YJU2B] | 5.26 ± 0.36 | 5.33 ± 0.23
RSLQRGCRALRDPALDSLAYEYER [TRADD] | 3.13 ± 0.059 | 3.47 ± 0.32
RSPYAGLQLGAAKKPPVTFAEKGE [TRIM29] | 4.09 ± 0.22 | 4.26 ± 0.2
RSVKVICLGSLASKLSRKYVKAKK [FAN1] | 2.37 ± 0.25 | 2.37 ± 0.28

Sequence | protein stability index (treatment: DMSO) | protein stability index (treatment: MLN4924 1 uM, 8 h)
RSVSEPRDQHPQPSLGDSLESIPS [RTN2] | 5.34 ± 0.41 | 5.17 ± 0.24
RTIAETEAAYLKILESSQTLLSVL [SSNA1] | 2.33 ± 0.29 | 2.72 ± 0.27
RTVNALEIELQAQHNLRDSLENTL [KRT34] | 3.41 ± 0.064 | 3.64 ± 0.42
RVFSQGSHAWEVALGGLQSWRVGV [TRIM35] | 2.46 ± 0.42 | 2.31 ± 0.38
RVNKEHEHKLKVVRDQISHCTVKL [TRIM9] | 3.29 ± 0.31 | 3.39 ± 0.29
RVQPVKDTAHDFRAKCRNMEHALR [TRIM35] | 2.96 ± 0.44 | 3.25 ± 0.36
RVYHGWLFEGLGRDKAEELLQLPD [SLA] | 3.01 ± 0.53 | 2.82 ± 0.57
RWWEDLERDFPCPVCRKTSRYRSL [TRIM39] | 2.36 ± 0.21 | 2.77 ± 0.56
RYALQLQQIQGLISSIEAQLSELR [KRT13] | 3.17 ± 0.14 | 3.38 ± 0.35
RYDPEPKSKWDEEWDKNKSAFPFS [CLINT1] | 3.84 ± 0.36 | 3.89 ± 0.21
RYHLQQNVHFKEETVKLFICELVM [STK32A] | 2.35 ± 0.41 | 2.46 ± 0.26
RYVEFNLLYDRGTKFGLFTPGSRI [CPOX] | 2.52 ± 0.75 | 2.26 ± 0.27
SAILQFPSTLGRCKAFSTCVSHLI [OR10K2] | 2.5 ± 0.55 | 2.59 ± 0.3
SCLLPSSEAKLYGRCELARVLHDF [SPACA3] | 2.08 ± 0.57 | 2.1 ± 0.26
SDCEEEEEEEEEEGSGHSTGEDSA [WEE1] | 5.57 ± 0.2 | 5.49 ± 0.33
SDFQIEPGFYATYESTLFEDQVPA [MIA2] | 3.92 ± 0.27 | 3.7 ± 0.31
SDSGKDLPEPSKRGPPHGWPKLCP [MYCL] | 4.27 ± 0.1 | 4.63 ± 0.078
SEGDLKNAIRVHHALATRASDYSK [PSD2] | 4.04 ± 0.11 | 4.22 ± 0.18
SEGSSSSSSSSSSSSSSASSSASS [NFE2L1] | 5.57 ± 0.16 | 5.53 ± 0.2
SEKASKKYVSKELAKEIRVKAEPF [EIF5] | 4.29 ± 0.28 | 4.36 ± 0.18
SELSESAFGYFITACAVIILTIIC [SLC29A1] | 2.03 ± 0.21 | 2.12 ± 0.39
SFGVDEEERVRVLQGVRLSENVVN [CHCHD6] | 4.39 ± 0.2 | 4.59 ± 0.15
SFIITLGCNSVLIQFATPNDFCSF [CARM1] | 3.3 ± 0.25 | 2.75 ± 0.45

Sequence | protein stability index (treatment: DMSO) | protein stability index (treatment: MLN4924 1 uM, 8 h)
SGESNSAVSTEDLKECLKKQLEFC [LARP4] | 4.43 ± 0.49 | 4.64 ± 0.19
SGGRGPQGDKAIREQGPREQEPEL [PBXIP1] | 5.44 ± 0.19 | 5.5 ± 0.25
SGNGDFGDWSAFNQAPSGPVASSG [CLINT1] | 4.37 ± 0.13 | 4.38 ± 0.11
SGRARQQDEEMLELPAPAEVAAKN [MLH1] | 5.52 ± 0.29 | 5.2 ± 0.17
SGRFIVIIPRTVIDGLDLLKKEHP [SMG5] | 2.9 ± 0.55 | 3.31 ± 0.78
SGRVKRERDREREPEAASSRGSPV [USP39] | 5.12 ± 0.18 | 5.33 ± 0.11
SGSRVRVGFRLCNSTGGDCFYRGY [SCNN1D] | 2.18 ± 0.21 | 2.38 ± 0.49
SHQCAHCEKTFNRKDHLKNHLQTH [PLAGL1] | 5.03 ± 0.15 | 5.04 ± 0.14
SHQYDRIYCGAGVQKDHENYMKIL [PCMTD1] | 2.38 ± 0.16 | 2.39 ± 0.2
SHWDLNHTHPSACQGQRLFEKLLQ [PLD5] | 2.56 ± 0.43 | 2.54 ± 0.3
SIGRRRTELRRSGSSRSPGSKARA [PLEKHN1] | 4.88 ± 0.47 | 4.95 ± 0.27
SIPLMGFEFEVRVCDSCHEAITDE [WDFY2] | 3.38 ± 0.17 | 3.54 ± 0.32
SITFTTGLEAPRDLEAKEVTPRTA [TNXB] | 5.22 ± 0.37 | 5.16 ± 0.3
SIYIHVYFTKSGFHPDPRQKALYR [CLPTM1] | 2.86 ± 0.6 | 2.76 ± 0.22
SKNDNGKPDSVGLPPCAVRNLQDL [PCMTD1] | 4.85 ± 0.44 | 4.58 ± 0.35
SKPCDLHCTTVDGQRQLMVPARDG [ADAMTSL2] | 4.33 ± 0.11 | 4.37 ± 0.36
SKSCMRAVLEYLYTGMFTSSPDLD [RHOBTB2] | 2.28 ± 0.039 | 2.05 ± 0.49
SLALVQNGDVSAPSAILRTPESTK [ANKRD40] | 4.07 ± 0.36 | 4.06 ± 0.17
SLSFEDFLDLLSVFSDTATPDIKS [CIB1] | 2.26 ± 0.35 | 2.29 ± 0.33
SLVHMDIKPSNIFISRTSIPNAAS [WEE1] | 2.43 ± 0.24 | 2.48 ± 0.21
SLYGENSNSLSSAEPLKEDKPVTG [ATF6] | 4.54 ± 0.1 | 4.58 ± 0.22
